Data: paper PMC6658011

Biological target: full-length AMC011 Env trimer (HIV-1)
Assay: negative-stain EM

Substance	stoichiometry N (Fab per trimer)
PGT145 Fab	1
PGT151 Fab	2
